Laboratory results: the supplement of paper PMC10065799, “High-throughput profiling of sequence recognition by tyrosine kinases and SH2 domains using bacterial peptide display” (eLife, 2023)

Legend:
c-Src SH2 = assay: SH2 binding enrichment of the phosphorylated peptide, bacterial display (enrichment ratio); higher = better substrate or ligand; peptides without Tyr show the background
SHP2-C SH2 = assay: as above
Grb2 SH2 = Grb2 SH2 (UniProt P62993); assay: as above
Jak2 = Jak2 (UniProt O60674); assay: phosphorylation enrichment, bacterial display (enrichment ratio); higher = better substrate or ligand; peptides without Tyr show the background
c-Abl (mouse) = assay: as above
AncSZ = assay: as above
FGFR3 = FGFR3 (UniProt P22607); assay: as above
Fyn = Fyn (UniProt P06241); assay: as above
FGFR1 = FGFR1 (UniProt P11362); assay: as above
Fes = Fes (UniProt P07332); assay: as above
EPHB2 = EPHB2 (UniProt P29323); assay: as above
Fer (mouse) = assay: as above
MERTK = MERTK (UniProt Q12866); assay: as above
Hck = Hck (UniProt P08631); assay: as above
EPHB1 = EPHB1 (UniProt P54762); assay: as above
c-Src = assay: as above
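Throughout, for SH2 binding enrichment of the phosphorylated peptide, bacterial display: peptide library displayed on the E. coli surface as eCPX fusions, selected cells deep-sequenced, score is each peptide's frequency after selection divided by its frequency in the input.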
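Throughout, for phosphorylation enrichment, bacterial display: 11-residue human phosphosite peptides and single-mutation variants displayed on the E. coli surface, counted by deep sequencing, each peptide's frequency after selection divided by its frequency in the unselected input library; frequency after pTyr selection over input frequency; kinase dosed for 20-30% of maximal phosphorylation in three min.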

Fyn, sequence (P06241 whole entry, looked up): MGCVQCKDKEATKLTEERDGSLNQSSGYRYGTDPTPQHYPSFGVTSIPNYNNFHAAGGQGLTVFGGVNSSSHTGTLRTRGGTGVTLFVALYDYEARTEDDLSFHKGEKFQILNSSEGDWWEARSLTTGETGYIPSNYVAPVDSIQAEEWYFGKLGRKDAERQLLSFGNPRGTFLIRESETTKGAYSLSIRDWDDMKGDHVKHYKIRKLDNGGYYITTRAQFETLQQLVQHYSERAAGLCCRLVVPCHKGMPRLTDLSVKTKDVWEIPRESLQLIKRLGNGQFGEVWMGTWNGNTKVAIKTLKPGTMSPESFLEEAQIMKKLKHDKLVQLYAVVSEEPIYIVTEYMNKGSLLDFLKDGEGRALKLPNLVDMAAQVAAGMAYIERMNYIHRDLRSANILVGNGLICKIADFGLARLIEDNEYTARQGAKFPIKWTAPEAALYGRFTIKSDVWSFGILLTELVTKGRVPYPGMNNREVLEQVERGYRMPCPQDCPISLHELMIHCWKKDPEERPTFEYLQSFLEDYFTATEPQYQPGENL
Hck, sequence (P08631 whole entry, looked up): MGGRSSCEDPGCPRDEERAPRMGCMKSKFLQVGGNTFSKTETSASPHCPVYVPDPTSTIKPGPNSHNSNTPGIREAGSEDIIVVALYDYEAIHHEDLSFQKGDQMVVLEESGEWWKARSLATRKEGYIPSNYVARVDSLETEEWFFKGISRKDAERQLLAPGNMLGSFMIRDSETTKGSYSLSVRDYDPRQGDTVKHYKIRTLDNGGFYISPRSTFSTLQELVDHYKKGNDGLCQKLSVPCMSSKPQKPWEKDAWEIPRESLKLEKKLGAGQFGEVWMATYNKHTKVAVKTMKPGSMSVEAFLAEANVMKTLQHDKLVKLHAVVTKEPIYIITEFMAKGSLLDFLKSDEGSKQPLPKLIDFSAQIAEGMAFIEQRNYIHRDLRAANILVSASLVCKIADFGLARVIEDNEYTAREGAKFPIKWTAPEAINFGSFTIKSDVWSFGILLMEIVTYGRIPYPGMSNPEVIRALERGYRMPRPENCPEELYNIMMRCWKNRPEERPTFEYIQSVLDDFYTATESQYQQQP
EPHB2, sequence (P29323 whole entry, looked up): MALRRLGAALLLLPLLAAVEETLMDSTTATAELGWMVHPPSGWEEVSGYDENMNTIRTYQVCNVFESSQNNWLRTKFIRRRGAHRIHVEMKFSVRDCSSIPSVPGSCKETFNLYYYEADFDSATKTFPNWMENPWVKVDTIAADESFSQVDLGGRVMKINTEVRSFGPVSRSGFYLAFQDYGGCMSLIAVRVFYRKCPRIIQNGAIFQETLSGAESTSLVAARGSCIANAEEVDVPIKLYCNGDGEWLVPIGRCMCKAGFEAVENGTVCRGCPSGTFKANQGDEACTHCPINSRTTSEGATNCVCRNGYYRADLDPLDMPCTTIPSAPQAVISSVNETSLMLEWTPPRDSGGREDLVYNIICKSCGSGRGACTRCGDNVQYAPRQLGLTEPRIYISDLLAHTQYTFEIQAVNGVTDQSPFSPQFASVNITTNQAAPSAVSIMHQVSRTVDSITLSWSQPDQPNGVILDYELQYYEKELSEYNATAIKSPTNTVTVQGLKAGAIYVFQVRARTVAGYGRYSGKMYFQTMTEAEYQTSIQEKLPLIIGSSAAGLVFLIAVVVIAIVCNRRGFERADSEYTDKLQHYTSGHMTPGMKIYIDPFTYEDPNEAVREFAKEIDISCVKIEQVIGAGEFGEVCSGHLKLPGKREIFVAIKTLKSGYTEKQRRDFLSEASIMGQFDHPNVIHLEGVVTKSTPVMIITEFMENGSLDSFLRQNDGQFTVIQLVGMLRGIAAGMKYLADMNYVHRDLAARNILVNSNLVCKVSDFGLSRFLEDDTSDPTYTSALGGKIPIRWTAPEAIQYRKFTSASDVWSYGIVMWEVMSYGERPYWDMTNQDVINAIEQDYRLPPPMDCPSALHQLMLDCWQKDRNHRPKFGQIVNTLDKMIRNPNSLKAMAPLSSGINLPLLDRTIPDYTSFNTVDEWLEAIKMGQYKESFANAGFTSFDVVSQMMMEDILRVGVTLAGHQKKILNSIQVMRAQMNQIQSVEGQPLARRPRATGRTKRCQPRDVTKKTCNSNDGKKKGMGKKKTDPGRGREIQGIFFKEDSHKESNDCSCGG
Grb2 SH2, sequence (P62993 whole entry, looked up): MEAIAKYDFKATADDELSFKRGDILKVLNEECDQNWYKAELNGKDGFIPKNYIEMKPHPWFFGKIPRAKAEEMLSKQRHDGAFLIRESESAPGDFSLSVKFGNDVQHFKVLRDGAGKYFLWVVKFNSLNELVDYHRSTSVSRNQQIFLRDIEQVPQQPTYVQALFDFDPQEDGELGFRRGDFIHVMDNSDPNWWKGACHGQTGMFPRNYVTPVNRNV
FGFR3, sequence (P22607 whole entry, looked up): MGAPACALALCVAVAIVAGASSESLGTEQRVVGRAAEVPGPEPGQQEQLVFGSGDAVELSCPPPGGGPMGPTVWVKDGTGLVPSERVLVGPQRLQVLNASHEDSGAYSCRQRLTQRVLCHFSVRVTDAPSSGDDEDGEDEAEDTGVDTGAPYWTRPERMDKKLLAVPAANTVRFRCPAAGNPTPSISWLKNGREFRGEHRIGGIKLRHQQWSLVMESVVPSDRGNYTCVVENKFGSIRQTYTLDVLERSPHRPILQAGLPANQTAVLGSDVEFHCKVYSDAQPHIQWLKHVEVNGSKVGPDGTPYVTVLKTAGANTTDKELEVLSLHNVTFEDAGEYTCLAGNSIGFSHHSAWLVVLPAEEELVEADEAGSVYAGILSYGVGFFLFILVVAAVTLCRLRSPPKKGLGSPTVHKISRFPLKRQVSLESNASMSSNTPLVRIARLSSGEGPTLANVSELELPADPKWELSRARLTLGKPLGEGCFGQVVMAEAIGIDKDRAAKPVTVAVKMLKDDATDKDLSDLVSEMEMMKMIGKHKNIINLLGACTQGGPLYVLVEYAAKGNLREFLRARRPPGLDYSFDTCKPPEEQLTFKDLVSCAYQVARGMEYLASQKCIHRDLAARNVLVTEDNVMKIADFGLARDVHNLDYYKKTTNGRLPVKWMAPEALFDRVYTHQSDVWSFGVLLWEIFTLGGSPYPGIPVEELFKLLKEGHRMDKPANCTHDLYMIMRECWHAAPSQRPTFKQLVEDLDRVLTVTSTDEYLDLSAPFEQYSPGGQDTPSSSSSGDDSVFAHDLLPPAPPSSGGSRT
Fes, sequence (P07332 whole entry, looked up): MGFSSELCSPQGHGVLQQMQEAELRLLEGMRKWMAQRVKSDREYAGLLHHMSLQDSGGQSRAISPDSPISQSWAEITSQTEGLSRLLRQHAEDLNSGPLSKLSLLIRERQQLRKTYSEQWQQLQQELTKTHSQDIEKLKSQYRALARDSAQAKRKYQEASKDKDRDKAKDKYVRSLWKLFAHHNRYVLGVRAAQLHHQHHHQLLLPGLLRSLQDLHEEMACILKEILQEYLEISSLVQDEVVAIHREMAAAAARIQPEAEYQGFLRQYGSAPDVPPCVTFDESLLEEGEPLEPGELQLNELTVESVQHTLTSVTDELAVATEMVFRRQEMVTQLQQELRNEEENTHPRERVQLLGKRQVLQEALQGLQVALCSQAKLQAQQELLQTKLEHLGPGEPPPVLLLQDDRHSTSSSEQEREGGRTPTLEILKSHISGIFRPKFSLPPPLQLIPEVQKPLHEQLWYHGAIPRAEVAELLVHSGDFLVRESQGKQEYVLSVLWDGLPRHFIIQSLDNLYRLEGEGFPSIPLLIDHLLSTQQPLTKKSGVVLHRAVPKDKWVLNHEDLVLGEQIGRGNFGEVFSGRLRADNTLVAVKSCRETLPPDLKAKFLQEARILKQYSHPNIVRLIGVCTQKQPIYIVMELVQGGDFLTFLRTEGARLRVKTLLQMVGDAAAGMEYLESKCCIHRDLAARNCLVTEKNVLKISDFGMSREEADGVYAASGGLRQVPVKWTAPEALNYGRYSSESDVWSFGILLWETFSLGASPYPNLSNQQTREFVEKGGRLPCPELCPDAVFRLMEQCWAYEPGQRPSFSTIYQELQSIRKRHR
FGFR1, sequence (P11362 whole entry, looked up): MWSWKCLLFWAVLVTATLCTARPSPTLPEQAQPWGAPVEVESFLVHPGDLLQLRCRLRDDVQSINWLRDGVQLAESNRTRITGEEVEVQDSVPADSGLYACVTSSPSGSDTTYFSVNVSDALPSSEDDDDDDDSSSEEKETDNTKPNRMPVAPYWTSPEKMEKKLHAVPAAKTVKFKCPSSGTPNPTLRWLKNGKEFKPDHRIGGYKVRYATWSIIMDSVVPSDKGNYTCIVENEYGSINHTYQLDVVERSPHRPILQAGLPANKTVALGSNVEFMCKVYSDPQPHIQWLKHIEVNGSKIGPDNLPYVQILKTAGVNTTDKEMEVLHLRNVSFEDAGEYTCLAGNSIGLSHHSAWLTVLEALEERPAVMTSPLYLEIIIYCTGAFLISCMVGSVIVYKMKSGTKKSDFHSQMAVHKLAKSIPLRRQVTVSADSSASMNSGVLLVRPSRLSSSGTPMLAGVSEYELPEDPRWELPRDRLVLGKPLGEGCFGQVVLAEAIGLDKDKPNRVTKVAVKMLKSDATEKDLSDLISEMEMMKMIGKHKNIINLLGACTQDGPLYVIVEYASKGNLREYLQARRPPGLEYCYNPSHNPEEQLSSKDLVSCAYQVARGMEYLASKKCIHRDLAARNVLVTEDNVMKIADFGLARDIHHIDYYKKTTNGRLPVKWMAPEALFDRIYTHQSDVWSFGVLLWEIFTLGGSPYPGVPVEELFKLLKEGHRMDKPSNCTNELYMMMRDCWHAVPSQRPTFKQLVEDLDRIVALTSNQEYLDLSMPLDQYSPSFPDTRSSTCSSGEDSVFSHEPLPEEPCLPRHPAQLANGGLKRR

Row | Sequence | SH2 binding enrichment (c-Src SH2) | SH2 binding enrichment (SHP2-C SH2) | SH2 binding enrichment (Grb2 SH2) | phosphorylation enrichment (Jak2) | phosphorylation enrichment (c-Abl (mouse)) | phosphorylation enrichment (AncSZ) | phosphorylation enrichment (FGFR3) | phosphorylation enrichment (Fyn) | phosphorylation enrichment (FGFR1) | phosphorylation enrichment (Fes) | phosphorylation enrichment (EPHB2) | phosphorylation enrichment (Fer (mouse)) | phosphorylation enrichment (MERTK) | phosphorylation enrichment (Hck) | phosphorylation enrichment (EPHB1) | phosphorylation enrichment (c-Src)
1 | MSSAGYRAAEG [COL6A3_Y543_T538M] | 0.396 | 0.609 | 0.788 | 0.529 | 0.497 | 0.468 | 0.444 | 0.387 | 0.425 | 0.495 | 0.334 | 0.379 | 0.372 | 0.375 | 0.389 | 0.404
2 | MSSLYYANALF [HOXB7_Y6_T9A] | 2.08 | 1.36 | 4.61 | 2.94 | 3.44 | 1.04 | 4.83 | 4.93 | 5.32 | 1.04 | 8.29 | 5.14 | 10.7 | 6.04 | 7.33 | 4.88
3 | MTFMFYRENLR [NLRP14_Y443_V441M_YF] | 0.567 | 1.22 | 0.909 | 1.32 | 0.879 | 1.45 | 0.784 | 0.537 | 0.545 | 1.28 | 0.724 | 0.705 | 0.526 | 0.518 | 0.691 | 0.445
4 | MVSLFYGTAIF [OR10C1_Y251_L255I] | 0.46 | 0.756 | 0.653 | 1.4 | 1.22 | 1.41 | 0.819 | 1.1 | 0.477 | 1.53 | 0.666 | 0.937 | 0.63 | 0.995 | 0.619 | 1.92
5 | NDENIYKGLPD [VAV3_Y141_D139N] | 0.494 | 0.645 | 1.1 | 1.14 | 1.08 | 1.34 | 0.799 | 1.23 | 0.529 | 1.2 | 0.644 | 0.579 | 0.542 | 1.4 | 0.564 | 1.78
6 | NDFGNYNQQPS [HNRNPA2B1_Y306] | 0.382 | 0.66 | 0.915 | 0.788 | 0.74 | 0.764 | 0.493 | 0.596 | 0.589 | 0.85 | 0.604 | 0.472 | 0.478 | 0.504 | 0.691 | 0.505
7 | NEKNIYRVPLM [BMPR2_Y247] | 0.508 | 0.755 | 0.864 | 0.671 | 31.2 | 0.622 | 0.501 | 1.96 | 0.446 | 0.708 | 0.357 | 0.439 | 0.609 | 1.16 | 0.377 | 0.877
8 | NFFDLYGGEKF [PTPN11_Y66_D61N_YF] | 0.641 | 0.827 | 1.02 | 0.826 | 0.581 | 0.91 | 0.61 | 1.79 | 0.419 | 1.02 | 0.634 | 0.553 | 0.437 | 3.54 | 0.518 | 2.73
9 | NIKKEYTKMVQ [PMS2_Y181_A182T] | 0.784 | 0.456 | 0.983 | 0.49 | 0.502 | 0.494 | 0.439 | 0.378 | 0.808 | 0.492 | 0.333 | 0.27 | 0.452 | 0.385 | 0.394 | 0.426
10 | NKEAICSGFIR [SMCHD1_Y283_Y283C_YF] | 0.5 | 0.664 | 0.827 | 0.802 | 0.741 | 0.693 | 0.53 | 0.39 | 0.496 | 0.952 | 0.398 | 0.467 | 0.455 | 0.501 | 0.448 | 0.451
11 | NKHTTYTMEHI [ACTN1_Y708_N707T] | 0.565 | 0.787 | 0.865 | 0.447 | 0.514 | 0.527 | 0.445 | 0.419 | 0.395 | 0.575 | 0.4 | 0.397 | 0.434 | 0.451 | 0.394 | 0.45
12 | NKKFHYRELPV [ERN2_Y860_H858Y_YF] | 0.678 | 1.06 | 0.877 | 0.372 | 0.407 | 0.459 | 0.45 | 0.419 | 0.368 | 0.508 | 0.351 | 0.374 | 0.306 | 0.332 | 0.362 | 0.266
13 | NKVKFYIPFMN [NCR1_Y84_D87Y_YF] | 1.57 | 1.22 | 1.64 | 0.824 | 0.699 | 0.897 | 0.519 | 0.437 | 0.431 | 1.02 | 0.528 | 0.507 | 0.482 | 0.436 | 0.551 | 0.413
14 | NKVKFYIPYMN [NCR1_Y84_D87Y] | 1.51 | 1.65 | 1.74 | 0.893 | 0.609 | 0.919 | 0.655 | 0.394 | 0.483 | 1.06 | 0.496 | 0.469 | 0.473 | 0.431 | 0.599 | 0.495
15 | NLGQQYNSPQE [UMPS_Y432] | 0.573 | 0.602 | 0.814 | 0.78 | 0.634 | 0.895 | 0.675 | 0.495 | 0.614 | 0.974 | 0.579 | 0.498 | 0.413 | 0.502 | 0.563 | 0.374
16 | NLNGKCNKPRA [ANGPTL3_Y417_Y417C] | 0.496 | 1.24 | 1.23 | 0.435 | 0.388 | 0.596 | 0.446 | 0.422 | 0.39 | 0.558 | 0.41 | 0.64 | 0.44 | 0.347 | 0.322 | 0.393
17 | NLPGGYSGSVK [MCPH1_Y606] | 0.448 | 0.766 | 0.72 | 0.618 | 0.747 | 0.595 | 0.425 | 0.484 | 0.374 | 0.652 | 0.455 | 0.375 | 0.371 | 0.447 | 0.407 | 0.46
18 | NMSRIYSTTKV [ACE_Y151_A154T] | 0.396 | 1.06 | 0.972 | 0.421 | 0.583 | 0.441 | 0.36 | 0.425 | 0.341 | 0.443 | 0.302 | 0.319 | 0.366 | 0.382 | 0.296 | 0.431
19 | NPIGLYSAEIL [LDB3_Y202_T206I] | 0.415 | 0.852 | 0.635 | 0.876 | 0.568 | 0.751 | 0.562 | 0.839 | 0.419 | 0.879 | 2.6 | 3.44 | 6.37 | 1.04 | 3 | 1.11
20 | NREGVYTVSAP [TGFBI_Y537_F540S] | 0.472 | 0.769 | 0.834 | 0.719 | 0.565 | 0.757 | 0.523 | 10.9 | 0.462 | 0.705 | 0.517 | 1.12 | 1.16 | 2.34 | 0.537 | 8.38
21 | NRKGKYFNVER [ANAPC4_Y469] | 0.299 | 0.51 | 0.498 | 0.379 | 0.631 | 0.478 | 0.451 | 0.386 | 0.473 | 0.575 | 0.448 | 0.351 | 0.411 | 0.695 | 0.367 | 0.487
22 | NRNVRYLTLDI [AKR1C2_Y305] | 1.96 | 6.75 | 1.03 | 0.835 | 0.635 | 0.744 | 0.499 | 0.381 | 0.507 | 0.921 | 0.506 | 0.395 | 0.497 | 0.523 | 0.392 | 0.441
23 | NSAFFYKTAEE [CCT6B_Y250_G247A] | 0.565 | 0.923 | 1.19 | 0.927 | 0.593 | 0.962 | 0.696 | 0.524 | 0.452 | 1.23 | 0.472 | 0.47 | 0.439 | 0.496 | 0.521 | 0.38
24 | NSFKYYMSDDI [ATRX_Y204_C200S] | 1.05 | 0.746 | 0.943 | 0.871 | 0.627 | 0.87 | 0.659 | 0.434 | 0.567 | 1.01 | 0.542 | 0.501 | 0.451 | 0.443 | 0.503 | 0.499
25 | NSNAAYEQSHF [LRIF1_Y714] | 0.769 | 0.663 | 0.755 | 0.418 | 0.574 | 0.575 | 0.55 | 0.504 | 0.48 | 0.616 | 0.479 | 0.417 | 0.388 | 0.445 | 0.327 | 0.395
26 | NSRYTYKLEVK [USH2A_Y3747] | 0.644 | 0.911 | 0.962 | 0.982 | 0.795 | 1.12 | 0.687 | 0.437 | 0.427 | 1.29 | 0.689 | 0.505 | 0.396 | 0.478 | 0.618 | 0.42
27 | NYAKMYCNPDA [KNL1_Y489] | 2.11 | 0.531 | 0.795 | 1.17 | 0.989 | 1.12 | 0.667 | 0.463 | 0.561 | 1.1 | 0.608 | 0.59 | 0.498 | 0.518 | 0.673 | 0.626
28 | PAIFTYDEFKK [COL8A2_Y648_T645I_YF] | 0.509 | 0.888 | 0.829 | 1.12 | 1.03 | 1.47 | 0.501 | 0.952 | 0.374 | 1.11 | 0.359 | 0.304 | 0.594 | 1.66 | 0.398 | 3
29 | PATFTYDEFKK [COL8A2_Y648_YF] | 0.791 | 0.53 | 1.03 | 1.3 | 0.864 | 1.49 | 1.12 | 1.9 | 0.77 | 1.43 | 1.24 | 1.68 | 0.677 | 2.06 | 1.38 | 1.68
